This is an account of results in patent US20230027639A1.

In experiment [1] the target is anti-CD19 CAR on CD19 CAR-T cells (the extracellular binding domain of the CAR was FMC63scfv). Briefly: flow cytometry on CD19 CAR-T cells; mean ± SD of three parallel experiments.
Experiment [2] has the same target. Description: flow cytometry on CD19 CAR-T cells, Biotinylated Human CD19 Fc Tag detected with PE anti-Biotin; percent CAR-positive cells, replicate 1.
Experiment [3] has the same target. Briefly: flow cytometry on CD19 CAR-T cells, Biotinylated Human CD19 Fc Tag detected with PE anti-Biotin; percent CAR-positive cells, replicate 2. (In general: In flow cytometry, cells or beads pass a laser one at a time.)
The target is the same in experiment [4]. Briefly: flow cytometry on CD19 CAR-T cells, Biotinylated Human CD19 Fc Tag detected with PE anti-Biotin; percent CAR-positive cells, replicate 3.
The target is the same in experiment [5]. Description: cell-based or functional assay.
The target is the same in experiment [6]. Description: flow cytometry on CD19 CAR-T cells, biotin-labelled antibody detected with PE anti-Biotin; percent CAR-positive cells, replicate 1.
Experiment [7] has the same target. Description: flow cytometry on CD19 CAR-T cells, biotin-labelled antibody detected with PE anti-Biotin; percent CAR-positive cells, replicate 2.
Experiment [8] has the same target. Description: flow cytometry on CD19 CAR-T cells, biotin-labelled antibody detected with PE anti-Biotin; percent CAR-positive cells, replicate 3.

Molecule “Biotinylated Human CD19, Fc Tag (ACROBiosystems, model CD19-H8259) (from UniProt P15391 20-291) (Fc fusion)” registered a CAR % (mean of three measurements) in experiment [1] of 14.2%. Also, the CAR % in experiment [2] was found to be 10.3%; in experiment [3] it was 12.3%; in experiment [4], 20.1%.

B1: monoclonal antibody 3984-mab001-H (scFv)
scFv: EIQLQQSGPELVKPGASVKVSCKASGYSFTDYTMYWVKQSHGKSLEWIGYIDPYNGGTNYSQRFKGKATLTVDKSSSTAFMHLNSLPSEDSAVYYCANTYDNYEFAYWGQGTLVTVSAGGGGSGGGGSGGGGSDIQMTQTTSSLSASLGDRVTISCRASQDISNYLNWYQQKPDGTVKLLIYYTSRLRSGVPSRFSGSGSGADYSLTISNLEQEDIATYFCQQGDTLPYTFGGGTKLEIN
In experiment [5], B1 had a killing rate of CD19+K562 cells by CAR-T cells (LDH release), effector:target 1:1, mAb 5 µg/ml (16.0% without mAb) of 16.1%; a killing rate of CD19+K562 cells by CAR-T cells (LDH release), effector:target 1:1, mAb 25 µg/ml (16.0% without mAb) of 6.5%; a killing rate of CD19+K562 cells by CAR-T cells (LDH release), effector:target 5:1, mAb 5 µg/ml (51.5% without mAb) of 39.1%; a killing rate of CD19+K562 cells by CAR-T cells (LDH release), effector:target 5:1, mAb 25 µg/ml (51.5% without mAb) of 32.1%.

B2: biotin-labeled monoclonal antibody Bio-3984-mab001-H (scFv)
scFv: B1 scFv
modifications: biotin label (Sulfo-NHS-Biotin); labelled residues not stated
As to B2, the figures for the CAR % in experiment [6], in experiment [7] and in experiment [8] were 47.9%, 48.5% and 47.2%, respectively. This molecule registered a CAR % (mean of three measurements) in experiment [1] of 47.9%.
